Results on 13 sequences are retold here after the DeepSol protein solubility set.

The nature of this data set: soluble on expression in E. coli; label from the status in PepcDB or PDB records.
For “AAGAAPVDISTLPRVKVDLVKPPFVHAHDQVAKTGPRVVEFTMTIEEKKLVIDREGTEIHAMTFNGSVPGPLMVVHENDYVELRLINPDTNTLLHNIDFHAATGALGGGALTQVNPGEETTLRFKATKPGVFVYHCAPEGMVPWHVTSGMNGAIMVLPRDGLKDEKGQPLTYDKIYYVGEQDFYVPKDEAGNYKKYETPGEAYEDAVKAMRTLTPTHIVFNGAVGALTGDHALTAAVGERVLVVHSQANRDTRPHLEGGHGDYVWATGKFRNPPDLDQETWLIPGGTAGAAFYTFRQPGVYAYVNHNLIEAFELGAAGHFKVTGEWNDDLMTSVVKPASM”, the “soluble on expression in E. coli” value is “soluble”.

With “AAGKDFVVKGKDGWAIIAGYHWFDEWGRDTFISLEGLLLVDKQYDIAKEIILKYLNLEKRGMLPNNFISYNGEPVYRGVDISLWAINAIYKTYIYSRDKNFIRKVVDKVLDIIDWYSKGNGVIYNVDNLIFHKGAPRTWMDASYDSRIVTPREGAAVEINALWYNALRVTEFLLNELGEKAEYLSEKAESVKKSFAEKFISQDGLYDYINWDNIPDKSIRPNQIFSISLPFPIIDDKSIASKILTLIESKLLRQYGLSSLSREDPNYKPVYKGDRRSRESLPQWTHMALVTRRLC”, the “soluble on expression in E. coli” value was “not soluble”. For “AAGVLKHRRRKEKAQRKLVGMQANLDRLSDLTAELGKQLKPLARQAEAARKAATIQSEVRDARLRIAGYQIHSLASSLKDAQSHHDSIAEKLEEVTEQLEEATGVQLEAEDALGKISPEAEKSQQLWFELSSLAERVSATQRIATDRAKNFSEVRYSGPDPDELAEKAARADAEYAEAEETVDILSERLESIQDNVAELEEQAQRADREHLAQVRAIADRREGIVRLLTLESQQREHIVAAEAELERLREAESDIAAQARSKDAEHKDCQTQAQEARSRIEPLSQSRDAALNESRAADSRLEQLREQQSDIDKSISRLESKIETLESHRMTRNAVKQWEKLQSFYGVDRYIIPQRGMEKAIAAALGPVAEALVGETTTAELQALDIESLARHIVITPGEDHDWRLATDLPHYASWLLDYVELAPEVSSTIVQILADVVLVDSYEHGREVVNHDPRLRAVCVDGTMWGHGWVAVGSAERSAVEIAAEIDQAEKDLEVARLQRVELAGTLNGAHQAADEARVRSAQAQAVCREQEIVVENFSRRVEAVSHEAEARKQELRRHALRVQEAQDRLNQLRQLWEETSDRLSRVEEDNSEEEPSTSERDKAAAALSHMRSMEVEARLSLRTAQDKAEHIRGRGDGLRRQAEYERQARARHDQAVARQRRKAEIASVVAQQCLVVAERVDDALARATQWKENAIAQRGVISARVSAAKDTVSALRTNANRLTEKSHAAELSLGQAQVRLEEAHEKIVEQLGIAISDLMRDYTPHEGFDIGAQRVRLKNAEKDLNALGKVNPLALEEFKALEERYEFLSTQLADVEQARRDLHGVINDVDTKILQ” the value was “not soluble”; for “AAHQLTIVHLEARDIDRPNPQLEIAPKEGTPIEGVLYQLYQLKSTEDGDLLAHWNSLTITELKKQAQQVFEATTNQQGKATFNQLPDGIYYGLAVKAGEKNRNVSAFLVDLSEDKVIYPKIIWSTGELDLLKVGVDGDTKKPLAGVVFELYEKNGRTPIRVKNGVHSQDIDAAKHLETDSSGHIRISGLIHGDYVLKEIETQSGYQIGQAETAVTIEKSKTVTVTIENKKVPTPKVPSR”, “soluble”; for “AALSNLSIRTTAHRFMEEMSMYAQAPVALAARDRLNMLYLDVVQTNSTMRRPIGSTLPLHNSSMGRACLAATPKQERYFLLEAIQKREPENWIEIKEKLDIAFDQYAEYGYCLSLGEWQQGINSVAVPLMSTKHGLYVFNCGAPSYALSTEKLIEDIGPRLKYMVNSIQDALTESL”, “not soluble”. For “AAPDEITTAWPVNVGPLNPHLYTPNQMFAQSMVYEPLVKYQADGSVIPWLAKSWTHSEDGKTWTFTLRDDVKFSNGEPFDAEAAAENFRAVLDNRQRHAWLELANQIVDVKALSKTELQITLKSAYYPFLQELALPRPFRFIAPSQFKNHETMNGIKAPIGTGPWILQESKLNQYDVFVRNENYWGEKPAIKKITFNVIPDPTTRAVAFETGDIDLLYGNEGLLPLDTFARFSQNPAYHTQLSQPIETVMLALNTAKAPTNELAVREALNYAVNKKSLIDNALYGTQQVADTLFAPSVPYANLGLKPSQYDPQKAKALLEKAGWTLPAGKDIREKNGQPLRIELSFIGTDALSKSMAEIIRADMRQIGADVSLIGEEESSIYARQRDGRFGMIFHRTWGAPYDPHAFLSSMRVPSHADFQAQQGLADKPLIDKEIGEVLATHDETQRQALYRDILTRLHDEAVYLPISYISMMVVSKPELGNIPYAPIATEIPFEQIKPVKP” the value was “soluble”; for “AAPSFDCGKPQVEPKKCPGRVVGGCVAHPHSWPWQVSLRTRFGMHFCGGTLISPEWVLTAAHCLEKSPRPSSYKVILGAHQEVNLEPHVQEIEVSRLFLEPTRKDIALLKLSSPAVITDKVIPACLPSPNYVVADRTECFITGWGETQGTFGAGLLKEAQLPVIENKVCNRYEFLNGRVQSTELCAGHLAGGTDSCQGDSGGPLVCFEKDKYILQGVTSWGLGCARPNKPGVYVRVSRFVTWIEGVMRNN”, “soluble”; for “ADIVNLQGVTGGNTYSVPAVTMDLLSGKDVAVEEFPRKLLTFKEKLGEGQFGEVHLCEVEGMEKFKDKDFALDVSANQPVLVAVKMLRADANKNARNDFLKEIKIMSRLKDPNIIHLLAVCITDDPLCMITEYMENGDLNQFLSRHEPPNSSSSDVRTVSYTNLKFMATQIASGMKYLSSLNFVHRDLATRNCLVGKNYTIKIADFGMSRNLYSGDYYRIQGRAVLPIRWMSWESILLGKFTTASDVWAFGVTLWETFTFCQEQPYSQLSDEQVIENTGEFFRDQGRQTYLPQPAICPDSVYKLMLSCWRRDTKNRPSFQEIHLLLLQQGDE”, “not soluble”. For “ADLLSKFDPLIAEREALLATGVRDPYAIVMDKVLSPTEAMINGRKTILLGTYNYMGMTFDPDVIAAGKQALDEFGSGTTGSRVLNGTYQGHKACEDALKEFYGTEHAIVFSTGYQANLGMISTLAGKGDYIILDADSHASIYDGCWLGDAEIVRFRHNSVEDLDKRLGRLPAEAGKLVVLEGVYSMMGDIAPLQEMVAVSKKHGAMILVDEAHGMGFFGEHGRGVFEEAGVEADVDFVVGTFSKSVGTVGGFCVSNHPKFEVLRLVCRPYVFTASLPPSVVATAATSIRKLMHAGDKRAHLWKNSRRLHQGLRDMGYKLGTETAQSAIIAVILTDMAQAVALWQGLLEAGLYVNTARPPATPAGMFLLRCSLCAEHSDEQVEQILGMFESAGRATGVIPKLAAALEHHHHHH” the value was “soluble”. For “ADPWQECMDYAVTLARQAGEVVCEAIKNEMNVMLKSSPVDLVTATDQKVEKMLISSIKEKYPSHSFIGEESVAAGEKSILTDNPTWIIDPIDGTTNFVHRFPFVAVSIGFAVNKKIEFGVVYSCVEGKMYTARKGKGAFCNGQKLQVSQQEDITKSLLVTELGSSRTPETVRMVLSNMEKLFCIPVHGIRSVGTAAVNMCLVATGGADAYYEMGIHCWDVAGAGIIVTEAGGVLMDVTGGPFDLMSRRVIAANNRILAERIAKEIQVIPLQRDDED”, the “soluble on expression in E. coli” value is “soluble”. For “AEGKLNDELAKNKGKIPGLKIDQKIRGQMPERGWTEDDIKNTVSNGATGTSFDKRSPKKTPPDYLGRNDPATVYGSPGKYVVVNDRTGEVTQISDKTDPGWVDDSRIQWGNKNDQ” the value was “soluble”. For “AEGVKTTAEAPAAEPALAAYVPMPRPFLFNLPGPDRARLVEIKVQLMVRGQDDEVLTQKHIPLIEDALLTTFSGADVQKLSTQAGKDELRQLALLSVQNTLQPVTGRKVVEKVLFTGFVMQ” the value was “not soluble”; for “AEIFATHLEAIARHTGPVRTLIDLGAGDCAKAERLLPCLRPQRYVPIDISTDFLGQAVARVRRAHPWLDVLPLGRDLNAGLDLPEAIDAQGRLFFYPGSSIGNLDPDAALALLASLRAQAGVSGGLLIGVDRVKARAIVEPAYDDALHLTGAFNLNLLRHVNSVLGSDFDVRDWTHVALYNEPRSRMEMHLQARSDIRVRWPGGQRRFQADERIHTENSYKYTIERFVDLLRRAGYGDIRYWSDARDWFSVFSARA”, “not soluble”.
